From the supplement of paper PMC10567573

B1: ZNF263 (parent)
chain: KPYKCTLCGENFSHRSNLIRHQRI

Variants of: B1
Assay: protein stability index of a GFP-peptide fusion (GPS, HEK-293T) (PSI 1-6); higher = more stable
Details: c terminus: a fixed tail appended
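Note: lentivirally expressed fusions sorted by FACS into six bins by GFP to DsRed ratio, PSI derived from sequencing read proportions per bin multiplied by bin number.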

In order of rising protein stability index:
1. KPYKCTLCLENFSHRSNLIRHQRI  1.16
2. KPHKCTLCGENFSHRSNLIRHQRI  1.34
3. KPYKCTLCGENFSHRSNLIRHPRI  1.39
4. KPYKCTLCTENFSHRSNLIRHQRI  1.39
5. KPYKCTLCGENFSWRSNLIRHQRI  1.43
6. KPYKFTLCGENFSHRSNLIRHQRI  1.45
7. KPYKCTLCGENRSHRSNLIRHQRI  1.54
8. KPIKCTLCGENFSHRSNLIRHQRI  1.55
9. KPYKCTLCGENFSHDSNLIRHQRI  1.55
10. KPYKCTLCGENPSHRSNLIRHQRI  1.57
11. KPYKMTLCGENFSHRSNLIRHQRI  1.67
12. KPYKCTLCGENFSHRSVLIRHQRI  1.7
13. KPYKCTLCGENFSHRSNDIRHQRI  1.74
14. KPYKITLCGENFSHRSNLIRHQRI  1.75
15. KPYKCTLCGENFSHRSNLIHHQRI  1.76
16. KPYKCTLCGENFSHRSNSIRHQRI  1.77
17. KPYKCTLCGENGSHRSNLIRHQRI  1.8
18. KPYKCTLCGENFSHRSNEIRHQRI  1.81
19. KPGKCTLCGENFSHRSNLIRHQRI  1.84
20. KPPKCTLCGENFSHRSNLIRHQRI  1.85
21. KPYKCTLCGENFSHRSNPIRHQRI  1.88
22. KPYKCTLCGENFSHRSNLFRHQRI  1.88
23. KPYKCTLCGENESHRSNLIRHQRI  1.93
24. KPYKCTLCGENFSHRGNLIRHQRI  1.94
25. KPYNCTLCGENFSHRSNLIRHQRI  1.94
26. KPYKCTLCGENFSHRSNIIRHQRI  1.95
27. KPYKYTLCGENFSHRSNLIRHQRI  1.96
28. KPYKCTLCGENASHRSNLIRHQRI  1.97
29. KPYKCTLCGENFSHRSNLIVHQRI  1.99
30. KCYKCTLCGENFSHRSNLIRHQRI  2.02
31. KPYKCTLCKENFSHRSNLIRHQRI  2.05
32. KPYKCTLCGENLSHRSNLIRHQRI  2.1
33. NPYKCTLCGENFSHRSNLIRHQRI  2.12
34. KPYKCTLCGENFTHRSNLIRHQRI  2.13
35. KPYKCTLCGENFSHRSNLIRHKRI  2.14
36. KYYKCTLCGENFSHRSNLIRHQRI  2.14
37. APYKCTLCGENFSHRSNLIRHQRI  2.19
38. KPYKCTLCGENFSHRSNKIRHQRI  2.19
39. KPYKCTRCGENFSHRSNLIRHQRI  2.28
40. KPYKCTLCGENFSHRSNLYRHQRI  2.3
41. KPYACTLCGENFSHRSNLIRHQRI  2.32
42. KPYKCTLCGENFSHRSNLITHQRI  2.33
43. KPYKCTLCGENFSHRSNLIRFQRI  2.34
44. KPYECTLCGENFSHRSNLIRHQRI  2.35
45. KPYKCTLCNENFSHRSNLIRHQRI  2.36
46. KPYKCTLCGENFSHRSNYIRHQRI  2.38
47. KPYKCTLCGENFKHRSNLIRHQRI  2.38
48. KPYKCTLCGENFCHRSNLIRHQRI  2.4
49. KPYKCTLYGENFSHRSNLIRHQRI  2.41
50. KPYKCTLCGENISHRSNLIRHQRI  2.41
51. KPWKCTLCGENFSHRSNLIRHQRI  2.42
52. KPYKCTLCGENFSHRSNQIRHQRI  2.42
53. KPYKCTLCGENFSHRWNLIRHQRI  2.43
54. KPYKCTLCFENFSHRSNLIRHQRI  2.43
55. KPYKCTLCGENFSHLSNLIRHQRI  2.45
56. KPYKCTLCGENFSHYSNLIRHQRI  2.45
57. HPYKCTLCGENFSHRSNLIRHQRI  2.47
58. KPYKCTLCGENFSHRSCLIRHQRI  2.47
59. KPYKCTLEGENFSHRSNLIRHQRI  2.48
60. KPYKCTLCGENFSHRSNLIRHQII  2.48
61. KPYKCTLCGENFSHRSNLIRHQGI  2.49
62. KPYKCTLCGENFSHRSNLTRHQRI  2.5
63. KPYTCTLCGENFSHRSNLIRHQRI  2.52
64. KPYKCTLCGENFWHRSNLIRHQRI  2.53
65. KPYKCTLCGENFSMRSNLIRHQRI  2.55
66. KPYKCTLCGENFSHRSNLARHQRI  2.57
67. KPYKCTLCGENFSHRSNLIFHQRI  2.58
68. KPYKCTLCGENFGHRSNLIRHQRI  2.59
69. KEYKCTLCGENFSHRSNLIRHQRI  2.67
70. YPYKCTLCGENFSHRSNLIRHQRI  2.69
71. KPYKCTLCGENFSHRSNLIRHQRG  2.75
72. KPYKCTLCGENFSTRSNLIRHQRI  2.75
73. KPYKCTLCGESFSHRSNLIRHQRI  2.8
74. KPYKCTLCGANFSHRSNLIRHQRI  2.82
75. KPYKCTLCGENFSHRSMLIRHQRI  2.87
76. KPYKCTLCGENFSHRLNLIRHQRI  2.88
77. KPYKCTLCGENFYHRSNLIRHQRI  2.89
78. KPYKCELCGENFSHRSNLIRHQRI  2.9
79. KPYKCTLCGENFSHRSNLIRHYRI  2.91
80. KVYKCTLCGENFSHRSNLIRHQRI  2.98
81. KPYKCTLCGENFSHRSSLIRHQRI  2.99
82. KPYKCTLCGENFSHRSNLGRHQRI  3.08
83. KPYKCTLCGENFSHRSNLIRHHRI  3.09
84. KPYKCHLCGENFSHRSNLIRHQRI  3.1
85. KPYKCTLCGENFSHRSNLIRHQRN  3.11
86. KPYKCTLCGENFSHRSYLIRHQRI  3.12
87. KRYKCTLCGENFSHRSNLIRHQRI  3.12
88. KPYKCTKCGENFSHRSNLIRHQRI  3.22
89. KPYKCTLCGEEFSHRSNLIRHQRI  3.23
90. KPYKCTYCGENFSHRSNLIRHQRI  3.25
91. KPYKCTLCGEMFSHRSNLIRHQRI  3.49
92. KPYKCTLCGENFSHRSNLIRHQRC  3.76
93. KPYKCTLCGENFSHRRNLIRHQRI  3.92
94. KPYKCTLCIENFSHRSNLIRHQRI  4
